Reference: publication PMC3258144 (Nucleic Acids Research, 2011)
Where a chain is given by its changes, count along the chain named. Names and notes keep the numbering of the source.

B1: Dnmt3a-C K840E (domain or fragment, mouse, UniProt O88508 608-908, looked up)
chain: NHDQEFDPPKVYPPVPAEKRKPIRVLSLFDGIATGLLVLKDLGIQVDRYIASEVCEDSITVGMVRHQGKIMYVGDVRSVTQKHIQEWGPFDLVIGGSPCNDLSIVNPARKGLYEGTGRLFFEFYRLLHDARPKEGDDRPFFWLFENVVAMGVSDKRDISRFLESNPVMIDAKEVSAAHRARYFWGNLPGMNRPLASTVNDKLELQECLEHGRIAKFSKVRTITTRSNSIKQGEDQHFPVFMNEKEDILWCTEMERVFGFPVHYTDVSNMSRLARQRLLGRSWSVPVIRHLFAPLKEYFACV
B2: Dnmt3a-C E850H (domain or fragment, mouse, UniProt O88508 608-908, looked up)
chain: B1 chain with E233K, E243H
B3: Dnmt3a-C R827E (domain or fragment, mouse, UniProt O88508 608-908, looked up)
chain: B1 chain with R220E, E233K

Assays:
native gel or EMSA = target: the molecule itself; experiment: native gel or EMSA
[1] = target: the molecule itself; experiment: fluorescence polarisation

| Protein | binding result (native gel or EMSA) | binding result [1] |
| --- | --- | --- |
| B1 | binds | – |
| B2 | binds | – |
| B3 | binds | binds |
